Data: PMC12310653

Target: cathepsin L
Assay: enzyme inhibition kinetics (Morrison equation for tight-binding inhibition); active cathepsin L (6 nM) incubated with varying concentrations of Amblyostatin-1 in 50 mM sodium acetate pH 5.5 at 37°C for 10 min; substrate Z-Phe-Arg-AMC; fluorescence read at 30°C over 15 min; residual Vmax fitted

recombinant Amblyostatin-1 (natural protein)
Ki: 0.697 nM
